Results as given in US20090029376.
Substitutions are numbered along the chain they refer to.

Assays:
Experiment in all cases: cleavage_in_vitro
[1] = target: T1, BamHI (Bacillus amyloliquefaciens) (UniProt P23940); conditions: NEB4, 37 C
T1 sequence: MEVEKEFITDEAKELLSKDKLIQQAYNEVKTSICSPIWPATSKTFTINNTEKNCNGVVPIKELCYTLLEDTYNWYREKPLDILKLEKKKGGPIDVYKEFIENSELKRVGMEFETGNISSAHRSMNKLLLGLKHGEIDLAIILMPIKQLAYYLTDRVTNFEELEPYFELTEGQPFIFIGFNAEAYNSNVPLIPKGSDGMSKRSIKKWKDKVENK

[2] = target: T2, BamHI(E86P) E86P (Bacillus amyloliquefaciens) (UniProt P23940); conditions: NEB4, 37 C
T2 sequence: T1 sequence with E86P

[3] = target: T3, BamHI-HF E163A/E167T (Bacillus amyloliquefaciens) (UniProt P23940); conditions: NEB4, 37 C
T3 sequence: T1 sequence with E163A, E167T

[4] = tested on: T4, BsmBI (Bacillus stearothermophilus); conditions: NEB4, 55 C
T4 sequence: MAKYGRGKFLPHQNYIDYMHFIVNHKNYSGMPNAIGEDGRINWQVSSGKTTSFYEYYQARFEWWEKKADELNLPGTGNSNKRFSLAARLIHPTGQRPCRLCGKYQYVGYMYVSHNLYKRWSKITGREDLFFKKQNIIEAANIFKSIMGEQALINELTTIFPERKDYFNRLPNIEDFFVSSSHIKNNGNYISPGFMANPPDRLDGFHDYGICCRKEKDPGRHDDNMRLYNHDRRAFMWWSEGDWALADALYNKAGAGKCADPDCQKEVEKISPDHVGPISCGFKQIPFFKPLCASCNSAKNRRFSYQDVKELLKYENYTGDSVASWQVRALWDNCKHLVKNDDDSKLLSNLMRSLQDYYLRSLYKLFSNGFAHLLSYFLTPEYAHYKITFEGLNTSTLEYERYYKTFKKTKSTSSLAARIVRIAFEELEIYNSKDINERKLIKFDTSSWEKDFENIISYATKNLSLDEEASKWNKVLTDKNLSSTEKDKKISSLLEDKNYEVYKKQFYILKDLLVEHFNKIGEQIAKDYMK

[5] = tested on: T5, BstXI-HF N65A (Bacillus stearothermophilus); conditions: NEB4, 55 C
T5 sequence: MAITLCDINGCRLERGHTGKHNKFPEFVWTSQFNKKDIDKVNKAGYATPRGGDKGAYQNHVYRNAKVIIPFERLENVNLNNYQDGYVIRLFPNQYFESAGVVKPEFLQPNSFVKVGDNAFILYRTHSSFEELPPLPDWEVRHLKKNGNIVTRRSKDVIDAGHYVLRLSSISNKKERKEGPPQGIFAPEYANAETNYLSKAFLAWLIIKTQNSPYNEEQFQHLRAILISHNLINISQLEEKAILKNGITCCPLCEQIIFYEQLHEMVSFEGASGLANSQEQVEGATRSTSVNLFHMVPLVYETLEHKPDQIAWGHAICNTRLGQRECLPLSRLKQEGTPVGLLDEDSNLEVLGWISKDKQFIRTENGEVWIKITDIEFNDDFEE

[6] = target: EcoRI (Escherichia coli RY13) (UniProt P00642); conditions: NEB4, 37 C
[7] = tested on: T6, NcoI (Nocardia corallina); conditions: NEB4, 37 C
T6 sequence: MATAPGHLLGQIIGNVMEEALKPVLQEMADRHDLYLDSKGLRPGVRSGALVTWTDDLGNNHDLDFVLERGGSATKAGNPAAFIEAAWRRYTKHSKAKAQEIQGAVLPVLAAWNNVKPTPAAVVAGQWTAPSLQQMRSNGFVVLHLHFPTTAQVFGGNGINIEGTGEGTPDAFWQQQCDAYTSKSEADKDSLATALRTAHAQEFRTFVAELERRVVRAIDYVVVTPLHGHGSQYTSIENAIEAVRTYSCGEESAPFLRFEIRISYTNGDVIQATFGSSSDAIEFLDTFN

[8] = target: T7, PstI-HF D91A (Providencia stuartii 164) (UniProt P00640); conditions: NEB4, 37 C
T7 sequence: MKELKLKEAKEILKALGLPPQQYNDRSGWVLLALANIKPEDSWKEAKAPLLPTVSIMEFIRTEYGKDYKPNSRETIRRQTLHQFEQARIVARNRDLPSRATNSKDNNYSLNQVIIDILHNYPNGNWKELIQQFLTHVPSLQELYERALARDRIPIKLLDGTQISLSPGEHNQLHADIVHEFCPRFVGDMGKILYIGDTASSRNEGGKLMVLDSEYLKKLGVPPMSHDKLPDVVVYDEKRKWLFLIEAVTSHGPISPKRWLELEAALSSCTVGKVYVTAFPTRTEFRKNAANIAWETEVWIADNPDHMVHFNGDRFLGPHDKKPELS

[9] = tested on: T8, SphI (Streptomyces phaeochromogenes); conditions: NEB4, 37 C
T8 sequence: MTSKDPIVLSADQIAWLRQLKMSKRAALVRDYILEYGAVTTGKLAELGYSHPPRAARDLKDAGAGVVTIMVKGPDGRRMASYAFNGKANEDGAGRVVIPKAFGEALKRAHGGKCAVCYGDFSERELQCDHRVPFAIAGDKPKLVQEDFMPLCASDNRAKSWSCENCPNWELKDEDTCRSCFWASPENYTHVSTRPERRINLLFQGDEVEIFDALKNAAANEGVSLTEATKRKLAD

With lambda phage DNA the activity (fidelity index) [1] was 4, the activity (fidelity index) [2] was > 4000 and the activity (fidelity index) [3] was > 4000. The activity (fidelity index) [4] was 4, the activity (fidelity index) [5] was > 250 and the activity (fidelity index) [6] was 4. For the same substance, the activity (fidelity index) [7] was 32, the activity (fidelity index) [8] was > 2000 and the activity (fidelity index) [9] was 16.
